Results on two substances are retold here after patent publication US20220306748A1.

Test [1] addresses CD3ε (CD3 epsilon) recombinant protein (UniProt P07766). The test can be described thus: SPR kinetics, CD3ε as immobilised ligand; comparator panel at the right. On the technique in general: In SPR one partner is held on a chip, and binding of the other changes the refractive index at the surface.
Test [2] deals with human leukocyte antigen-G (HLA-G) recombinant protein (human) (UniProt P17693). The test can be described thus: SPR kinetics, HLA-G as immobilised ligand; comparator panel at the right.

What is called Kd is a measure of binding affinity in units of concentration. As to Muromonab-CD3 (antibody), the dissociation constant Kd in test [1] was found to be 7.68 nM.

Regarding Anti-human HLA-G Antibody (87G), the Kd in test [2] amounted to 8.69 nM.
